The values below come from US20160022764A1 (RHYTHM PHARMACEUTICALS, published 2016).

Bridge positions count the residues as written; N and C are the ends. Square brackets hold non-standard residues; d marks the D form. Ends that are not written are not given here. dTle = CC(C)(C)[C@@H](N)C(=O)O; Pen = CC(C)(S)[C@H](N)C(=O)O; hCys = N[C@@H](CCS)C(=O)O

Targets include melanocortin-5 receptor (human, UniProt P33032 1-325); melanocortin-1 receptor (human, UniProt Q01726 1-317); melanocortin-3 receptor (human, UniProt P41968 1-323); melanocortin-4 receptor (human, UniProt P32245 1-332).
What all share (assay): cell-based or functional assay

Chain of melanocortin-4 receptor (P32245 whole entry): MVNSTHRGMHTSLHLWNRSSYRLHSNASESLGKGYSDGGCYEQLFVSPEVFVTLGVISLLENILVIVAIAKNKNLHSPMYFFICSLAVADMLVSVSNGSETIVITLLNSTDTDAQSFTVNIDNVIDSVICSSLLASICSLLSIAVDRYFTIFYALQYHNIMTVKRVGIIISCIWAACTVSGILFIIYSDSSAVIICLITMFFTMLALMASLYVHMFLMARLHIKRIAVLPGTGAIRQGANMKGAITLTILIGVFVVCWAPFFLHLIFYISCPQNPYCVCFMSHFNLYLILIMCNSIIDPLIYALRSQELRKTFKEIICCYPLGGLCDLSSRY
Chain of melanocortin-5 receptor (P33032 whole entry): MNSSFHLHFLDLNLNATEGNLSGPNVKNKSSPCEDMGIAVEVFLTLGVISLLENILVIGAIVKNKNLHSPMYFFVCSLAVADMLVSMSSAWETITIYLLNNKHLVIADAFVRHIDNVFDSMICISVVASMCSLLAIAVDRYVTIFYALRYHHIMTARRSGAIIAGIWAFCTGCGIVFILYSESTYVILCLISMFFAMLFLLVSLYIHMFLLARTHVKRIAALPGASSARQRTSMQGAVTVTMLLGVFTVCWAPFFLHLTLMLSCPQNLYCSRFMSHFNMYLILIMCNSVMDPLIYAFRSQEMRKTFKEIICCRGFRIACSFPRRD
Chain of melanocortin-3 receptor (P41968 whole entry): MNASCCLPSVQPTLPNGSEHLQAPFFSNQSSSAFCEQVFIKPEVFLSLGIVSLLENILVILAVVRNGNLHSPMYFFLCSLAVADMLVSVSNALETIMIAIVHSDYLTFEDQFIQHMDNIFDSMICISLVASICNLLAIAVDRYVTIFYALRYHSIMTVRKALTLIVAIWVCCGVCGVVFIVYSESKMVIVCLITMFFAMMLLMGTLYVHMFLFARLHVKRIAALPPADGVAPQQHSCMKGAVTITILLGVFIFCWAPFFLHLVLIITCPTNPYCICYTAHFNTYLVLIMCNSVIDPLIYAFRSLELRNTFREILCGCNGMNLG
Chain of melanocortin-1 receptor (Q01726 whole entry): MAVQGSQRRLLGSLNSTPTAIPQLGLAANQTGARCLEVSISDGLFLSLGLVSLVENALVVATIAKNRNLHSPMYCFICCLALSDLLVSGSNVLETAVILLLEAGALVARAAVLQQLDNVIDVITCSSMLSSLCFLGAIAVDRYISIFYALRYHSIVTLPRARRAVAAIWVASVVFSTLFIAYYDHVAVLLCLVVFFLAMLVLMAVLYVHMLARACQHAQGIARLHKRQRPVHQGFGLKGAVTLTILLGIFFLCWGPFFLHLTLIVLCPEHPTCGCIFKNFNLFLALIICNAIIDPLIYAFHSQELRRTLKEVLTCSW

B1: Peptide 1 (peptide)
peptide: RCAHFRWC
modifications: cysteine pairing not given here; also: further groups not given here
Consider B1, for which the “cAMP Assay (EC-50)” value in the assay with melanocortin-5 receptor was determined as 1600 nM.

B2: Compound 1: Ac-Arg-cyclo[Cys-D-Leu-His-D-Phe-Arg-Trp-Cys]-NH2 (peptide)
peptide: Ac-RC[dL]H[dF]RWC-NH2
modifications: disulfide 2-8
Regarding B2, in the assay with melanocortin-1 receptor, the “Ratios of EC50 values: MC1/4” value stood at 0.68 and the “cAMP Assay (EC-50)” value was 0.47 nM. In the assay with melanocortin-3 receptor, the “Ratios of EC50 values: MC3/4” value is 1.13 and the “cAMP Assay (EC-50)” value was 0.79 nM. In the assay with melanocortin-4 receptor, the “cAMP Assay (EC-50)” value was determined as 0.7 nM. Further, in the assay with melanocortin-5 receptor, the “Ratios of EC50 values: MC5/4” value came to 130 and the “cAMP Assay (EC-50)” value amounted to 91 nM.

B3: Compound 6: Ac-Arg-cyclo[Cys-D-Ala-His(1-Me)-D-Phe-Arg-Trp-Cys]-NH2 (peptide)
peptide: Ac-RC[dA][His(1-Me)][dF]RWC-NH2
modifications: disulfide 2-8
In the case of B3, the “cAMP Assay (EC-50)” value with melanocortin-1 receptor was determined as 30.4 nM; in the assay with melanocortin-3 receptor, 4.3 nM; with melanocortin-5 receptor it was 467 nM.

B4: Compound 17: Ac-Arg-cyclo[hCys-D-Ala-D-Phe-Arg-Trp-Pen]-NH2 (peptide)
peptide: Ac-R[hCys][dA][dF]RW[Pen]-NH2
modifications: disulfide 2-7
SMILES: CC(=O)N[C@@H](CCCNC(=N)N)C(=O)N[C@H]1CCSSC(C)(C)[C@@H](C(N)=O)NC(=O)[C@H](Cc2c[nH]c3ccccc23)NC(=O)[C@H](CCCNC(=N)N)NC(=O)[C@@H](Cc2ccccc2)NC(=O)[C@@H](C)NC1=O
Turning to B4, in the assay with melanocortin-1 receptor, the “Ratios of EC50 values: MC1/4” value turned out to be 15 and the “cAMP Assay (EC-50)” value came out at 195 nM. For the same molecule, in the assay with melanocortin-3 receptor, the “Ratios of EC50 values: MC3/4” value is 17 and the “cAMP Assay (EC-50)” value was found to be 233 nM. The “cAMP Assay (EC-50)” value with melanocortin-4 receptor was determined as 13.7 nM. Also, in the assay with melanocortin-5 receptor, the “Ratios of EC50 values: MC5/4” value was determined as 159 and the “cAMP Assay (EC-50)” value was determined as 2180 nM.

B5: Compound 4: Ac-Arg-cyclo[Cys-D-Val-His-D-Phe-Arg-Trp-Cys]-NH2 (peptide)
peptide: Ac-RC[dV]H[dF]RWC-NH2
modifications: disulfide 2-8
In the case of B5, in the assay with melanocortin-1 receptor, the “Ratios of EC50 values: MC1/4” value came to 0.93 and the “cAMP Assay (EC-50)” value was 1.25 nM. In addition, in the assay with melanocortin-3 receptor, the “Ratios of EC50 values: MC3/4” value was determined as 1.19 and the “cAMP Assay (EC-50)” value stood at 1.59 nM. The “cAMP Assay (EC-50)” value in the assay with melanocortin-4 receptor was determined as 1.34 nM. For the same molecule, in the assay with melanocortin-5 receptor, the “Ratios of EC50 values: MC5/4” value is 584 and the “cAMP Assay (EC-50)” value came out at 782 nM.

B6: Compound 10: Ac-Arg-cyclo[Cys-D-Ala-Arg-D-Phe-Arg-Trp-Cys]-NH2 (peptide)
peptide: Ac-RC[dA]R[dF]RWC-NH2
modifications: disulfide 2-8
SMILES: CC(=O)N[C@@H](CCCNC(=N)N)C(=O)N[C@H]1CSSC[C@@H](C(N)=O)NC(=O)[C@H](Cc2c[nH]c3ccccc23)NC(=O)[C@H](CCCNC(=N)N)NC(=O)[C@@H](Cc2ccccc2)NC(=O)[C@H](CCCNC(=N)N)NC(=O)[C@@H](C)NC1=O
Turning to B6, the “Ratios of EC50 values: MC1/4” value with melanocortin-1 receptor amounted to 2.31. The “cAMP Assay (EC-50)” value with melanocortin-1 receptor was 6.2 nM; with melanocortin-3 receptor, 3.9 nM; with melanocortin-4 receptor, 2.7 nM. For the same molecule, in the assay with melanocortin-3 receptor, the “Ratios of EC50 values: MC3/4” value was 1.45.

B7: Compound 15: Ac-Arg-cyclo[hCys-Ala-D-Phe-Arg-Trp-Cys]-NH2 (peptide)
peptide: Ac-R[hCys]A[dF]RWC-NH2
modifications: disulfide 2-7
SMILES: CC(=O)N[C@@H](CCCNC(=N)N)C(=O)N[C@H]1CCSSC[C@@H](C(N)=O)NC(=O)[C@H](Cc2c[nH]c3ccccc23)NC(=O)[C@H](CCCNC(=N)N)NC(=O)[C@@H](Cc2ccccc2)NC(=O)[C@H](C)NC1=O
For the molecule B7, the “Ratios of EC50 values: MC1/4” value with melanocortin-1 receptor was determined as 15. The “cAMP Assay (EC-50)” value amounted to 4 nM with melanocortin-1 receptor, 1 nM with melanocortin-3 receptor, 0.26 nM with melanocortin-4 receptor and 42 nM with melanocortin-5 receptor. Also, the “Ratios of EC50 values: MC3/4” value with melanocortin-3 receptor amounted to 3.8. In addition, in the assay with melanocortin-5 receptor, the “Ratios of EC50 values: MC5/4” value stood at 161.

B8: Compound 2: Ac-Arg-cyclo[Cys-D-Ile-His-D-Phe-Arg-Trp-Cys]-NH2 (peptide)
peptide: Ac-RC[dI]H[dF]RWC-NH2
modifications: disulfide 2-8
Take B8: the “Ratios of EC50 values: MC1/4” value in the assay with melanocortin-1 receptor is 0.69. Further, the “cAMP Assay (EC-50)” value with melanocortin-1 receptor came to 0.69 nM; with melanocortin-3 receptor, 0.96 nM; with melanocortin-4 receptor, 1 nM; with melanocortin-5 receptor, 420 nM. For the same molecule, the “Ratios of EC50 values: MC3/4” value with melanocortin-3 receptor amounted to 0.96. Also, the “Ratios of EC50 values: MC5/4” value in the assay with melanocortin-5 receptor amounted to 420.

B9: Compound 16: Ac-Arg-cyclo[hCys-D-Ala-D-Phe-Arg-Trp-Cys]-NH2 (peptide)
peptide: Ac-R[hCys][dA][dF]RWC-NH2
modifications: disulfide 2-7
SMILES: CC(=O)N[C@@H](CCCNC(=N)N)C(=O)N[C@H]1CCSSC[C@@H](C(N)=O)NC(=O)[C@H](Cc2c[nH]c3ccccc23)NC(=O)[C@H](CCCNC(=N)N)NC(=O)[C@@H](Cc2ccccc2)NC(=O)[C@@H](C)NC1=O
As for B9, the “Ratios of EC50 values: MC1/4” value in the assay with melanocortin-1 receptor is 120. Moreover, the “cAMP Assay (EC-50)” value was 888 nM with melanocortin-1 receptor, 3160 nM with melanocortin-3 receptor, 7.5 nM with melanocortin-4 receptor and over 10000 nM with melanocortin-5 receptor. Moreover, the “Ratios of EC50 values: MC3/4” value with melanocortin-3 receptor was determined as 420. Besides, the “Ratios of EC50 values: MC5/4” value with melanocortin-5 receptor is over 1340.

B10: Compound 7: Ac-Arg-cyclo[Cys-D-Ala-Trp-D-Phe-Arg-Trp-Cys]-NH2 (peptide)
peptide: Ac-RC[dA]W[dF]RWC-NH2
modifications: disulfide 2-8
SMILES: CC(=O)N[C@@H](CCCNC(=N)N)C(=O)N[C@H]1CSSC[C@@H](C(N)=O)NC(=O)[C@H](Cc2c[nH]c3ccccc23)NC(=O)[C@H](CCCNC(=N)N)NC(=O)[C@@H](Cc2ccccc2)NC(=O)[C@H](Cc2c[nH]c3ccccc23)NC(=O)[C@@H](C)NC1=O
On to B10, for which, in the assay with melanocortin-1 receptor, the “Ratios of EC50 values: MC1/4” value was 8 and the “cAMP Assay (EC-50)” value is 273 nM. In the assay with melanocortin-3 receptor, the “Ratios of EC50 values: MC3/4” value is over 290 and the “cAMP Assay (EC-50)” value is over 10000 nM. Further, in the assay with melanocortin-4 receptor, the “cAMP Assay (EC-50)” value is 34 nM. Further, in the assay with melanocortin-5 receptor, the “Ratios of EC50 values: MC5/4” value was found to be 7 and the “cAMP Assay (EC-50)” value turned out to be 259 nM.

B11: Compound 3: Ac-Arg-cyclo[Cys-D-Tle-His-D-Phe-Arg-Trp-Cys]-NH2 (peptide)
peptide: Ac-RC[dTle]H[dF]RWC-NH2
modifications: disulfide 2-8
For B11, the entries for the “cAMP Assay (EC-50)” value with melanocortin-1 receptor, with melanocortin-3 receptor and in the assay with melanocortin-5 receptor were 1 nM, 0.7 nM and 672 nM, respectively.

B12: Compound 5: Ac-Arg-cyclo[Cys-D-Ala-His(3-Me)-D-Phe-Arg-Trp-Cys]-NH2 (peptide)
peptide: Ac-RC[dA][His(3-Me)][dF]RWC-NH2
modifications: disulfide 2-8
Consider B12, for which the “cAMP Assay (EC-50)” value in the assay with melanocortin-1 receptor worked out at 4.1 nM; with melanocortin-3 receptor, 406 nM; in the assay with melanocortin-4 receptor, 1.15 nM; in the assay with melanocortin-5 receptor it was 1080 nM.

B13: Compound 11: Ac-Arg-cyclo[Cys-D-Ala-Tyr-D-Phe-Arg-Trp-Cys]-NH2 (peptide)
peptide: Ac-RC[dA]Y[dF]RWC-NH2
modifications: disulfide 2-8
SMILES: CC(=O)N[C@@H](CCCNC(=N)N)C(=O)N[C@H]1CSSC[C@@H](C(N)=O)NC(=O)[C@H](Cc2c[nH]c3ccccc23)NC(=O)[C@H](CCCNC(=N)N)NC(=O)[C@@H](Cc2ccccc2)NC(=O)[C@H](Cc2ccc(O)cc2)NC(=O)[C@@H](C)NC1=O
As to B13, in the assay with melanocortin-1 receptor, the “Ratios of EC50 values: MC1/4” value was 6.67 and the “cAMP Assay (EC-50)” value was 301 nM. In addition, in the assay with melanocortin-3 receptor, the “Ratios of EC50 values: MC3/4” value was over 22.2 and the “cAMP Assay (EC-50)” value was over 1000 nM. In addition, in the assay with melanocortin-4 receptor, the “cAMP Assay (EC-50)” value was 45.1 nM.

B14: Compound 22: Ac-Glu-cyclo[Cys-Ala-His-D-Phe-Arg-Trp-Cys]-NH2 (peptide)
peptide: Ac-ECAH[dF]RWC-NH2
modifications: disulfide 2-8
SMILES: CC(=O)N[C@@H](CCC(=O)O)C(=O)N[C@H]1CSSC[C@@H](C(N)=O)NC(=O)[C@H](Cc2c[nH]c3ccccc23)NC(=O)[C@H](CCCNC(=N)N)NC(=O)[C@@H](Cc2ccccc2)NC(=O)[C@H](Cc2c[nH]cn2)NC(=O)[C@H](C)NC1=O
With B14, in the assay with melanocortin-1 receptor, the “Ratios of EC50 values: MC1/4” value was over 3 and the “cAMP Assay (EC-50)” value was found to be 1.7 nM. Also, in the assay with melanocortin-3 receptor, the “Ratios of EC50 values: MC3/4” value is over 20 and the “cAMP Assay (EC-50)” value amounted to 9.9 nM. Moreover, the “cAMP Assay (EC-50)” value with melanocortin-4 receptor is under 0.5 nM. Also, in the assay with melanocortin-5 receptor, the “Ratios of EC50 values: MC5/4” value was over 2560 and the “cAMP Assay (EC-50)” value was found to be 1280 nM.
